Columns and labels:
[1] = target: F-actin (Oryctolagus cuniculus) (UniProt P68135); details: cited from earlier work
[2] = target: rabbit actin (Cytoskeleton, catalog #AKL95) (rabbit) (UniProt P68135)
[3] = target: rabbit actin (Cytoskeleton, catalog #AKL95) (rabbit) (UniProt P68135); remark: listed apart in the source
[4] = target: emerin (Homo sapiens) (UniProt P50402); details: cited from earlier work
Sequence of emerin (Homo sapiens) (P50402 whole entry): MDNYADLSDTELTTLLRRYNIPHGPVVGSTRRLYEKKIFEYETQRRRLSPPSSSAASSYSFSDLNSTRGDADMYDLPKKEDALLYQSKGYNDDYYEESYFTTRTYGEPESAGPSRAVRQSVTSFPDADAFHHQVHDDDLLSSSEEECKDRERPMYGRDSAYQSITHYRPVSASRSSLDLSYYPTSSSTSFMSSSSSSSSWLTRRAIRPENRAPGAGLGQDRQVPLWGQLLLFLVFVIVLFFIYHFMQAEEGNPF

Sequence of tropomodulin (P28289 whole entry): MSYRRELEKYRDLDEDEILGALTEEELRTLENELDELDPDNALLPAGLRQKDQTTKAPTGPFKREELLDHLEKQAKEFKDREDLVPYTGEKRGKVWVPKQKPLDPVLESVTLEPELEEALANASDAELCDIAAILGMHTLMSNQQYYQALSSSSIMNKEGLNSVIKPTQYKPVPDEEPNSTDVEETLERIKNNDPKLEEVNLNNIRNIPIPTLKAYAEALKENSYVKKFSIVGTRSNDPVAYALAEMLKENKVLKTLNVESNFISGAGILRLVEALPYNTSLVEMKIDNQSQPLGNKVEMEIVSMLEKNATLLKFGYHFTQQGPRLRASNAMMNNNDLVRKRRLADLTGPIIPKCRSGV
Sequence of LAP2β (P42167 whole entry): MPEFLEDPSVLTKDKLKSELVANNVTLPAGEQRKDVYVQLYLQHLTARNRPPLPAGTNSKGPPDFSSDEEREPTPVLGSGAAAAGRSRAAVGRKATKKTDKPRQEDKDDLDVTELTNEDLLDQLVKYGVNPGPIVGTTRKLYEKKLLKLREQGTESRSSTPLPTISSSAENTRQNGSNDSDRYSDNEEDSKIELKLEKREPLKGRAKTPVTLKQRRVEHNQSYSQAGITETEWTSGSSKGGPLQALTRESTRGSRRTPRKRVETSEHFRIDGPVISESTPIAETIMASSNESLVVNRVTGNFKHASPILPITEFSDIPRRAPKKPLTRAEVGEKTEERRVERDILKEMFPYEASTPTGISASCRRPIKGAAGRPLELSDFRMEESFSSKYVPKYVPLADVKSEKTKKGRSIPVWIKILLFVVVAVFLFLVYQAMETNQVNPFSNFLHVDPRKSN

## tropomodulin (from UniProt P28289)
[1]
  Kd: 110 nM

## tropomodulin (from UniProt P28289 1-359) (natural protein)
[2]
  length of green (pointed-end growth) segments on rhodamine–phalloidin filaments capped with capping protein, 1 μM tropomodulin: 0.09 μm
  length of growing (green) segments on filaments formed from gelsolin–actin seeds, 1 μM tropomodulin: 0.1 μm

## LAP2β (from UniProt P42167 1-454) (natural protein)
[3]
  actin polymerization assays (data not shown), activity against emerin (fold less active than emerin): 20

## nesprin-1α (from UniProt Q8NF91)
[4]
  Kd: 4 nM

Source: PMC509406
